Measurements reported in article PMC4417627 (Biochemistry, 2013).
Like-named read-outs stand apart in the source and are kept apart here.

Experiments:
[1] = target: IKKβ 701-745 (Homo sapiens) (UniProt O14920); assay: SPR; conditions: cited from earlier work
[2] = target: IKKβ 680-756 (Homo sapiens) (UniProt O14920); assay: SPR; conditions: cited from earlier work
[3] = target: IKKβ 680-756 (Homo sapiens) (UniProt O14920); assay: ITC; conditions: cited from earlier work
cross-linking [4] = target: the molecule itself; assay: cross-linking
cross-linking [5] = target: the molecule itself; assay: cross-linking; remark: listed apart in the source
[6] = target: the molecule itself; assay: fluorescence polarisation

NEMO 38-196, sequence (Q9Y6K9 38-196): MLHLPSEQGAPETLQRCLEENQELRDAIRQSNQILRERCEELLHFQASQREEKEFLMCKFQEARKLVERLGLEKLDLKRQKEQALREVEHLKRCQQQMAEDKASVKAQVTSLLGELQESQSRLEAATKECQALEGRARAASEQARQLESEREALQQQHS
IKKβ 680-756 (Homo sapiens), sequence (O14920 680-756): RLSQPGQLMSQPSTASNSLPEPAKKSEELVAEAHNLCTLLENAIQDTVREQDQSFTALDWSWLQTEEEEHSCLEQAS
NEMO 2-200, sequence (Q9Y6K9 2-200): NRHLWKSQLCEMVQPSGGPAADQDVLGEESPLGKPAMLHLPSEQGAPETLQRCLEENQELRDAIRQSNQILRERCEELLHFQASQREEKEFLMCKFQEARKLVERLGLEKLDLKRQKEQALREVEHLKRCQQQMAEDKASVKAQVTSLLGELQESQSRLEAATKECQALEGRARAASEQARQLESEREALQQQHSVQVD
IKKβ 701-745 (Homo sapiens), sequence (O14920 701-745): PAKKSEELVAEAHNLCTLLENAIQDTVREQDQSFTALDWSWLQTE

| Molecule | stoichiometry N (cross-linking [4]) | other results |
| --- | --- | --- |
| NEMO 2-200 (from UniProt Q9Y6K9) |  | Kd [1]: 76 nM |
| NEMO 38-196 (from UniProt Q9Y6K9) |  | Kd [2]: 3.4 nM; Kd [3]: 1000 nM |
| 5xAla NEMO, recombinant full-length, C-terminal 6xHis (natural protein, human, UniProt Q9Y6K9 1-419, looked up) MNRHLWKSQLAEMVQPSGGPAADQDVLGEESPLGKPAMLHLPSEQGAPETLQRCLEENQELRDAIRQSNQILRERAEELLHFQASQREEKEFLMAKFQEARKLVERLGLEKLDLKRQKEQALREVEHLKRAQQQMAEDKASVKAQVTSLLGELQESQSRLEAATKEAQALEGRARAASEQARQLESEREALQQQHSVQVDQLRMQGQSVEAALRMERQAASEEKRKLAQLQVAYHQLFQEYDNHIKSSVVGSERKRGMQLEDLKQQLQQAEEALVAKQEVIDKLKEEAEQHKIVMETVPVLKAQADIYKADFQAERQAREKLAEKKELLQEQLEQLQREYSKLKASCQESARIEDMRKRHVEVSQAPLPPAPAYLSSPLALPSQRRSPPEEPPDFCCPKCQYQAPDMDTLQIHVMECIE | 2 |  |
| 6xAla NEMO containing Cys76 (Cys76 added back into the 7xAla construct) (natural protein, human, UniProt Q9Y6K9 1-419, looked up) MNRHLWKSQLAEMVQPSGGPAADQDVLGEESPLGKPAMLHLPSEQGAPETLQRALEENQELRDAIRQSNQILRERCEELLHFQASQREEKEFLMAKFQEARKLVERLGLEKLDLKRQKEQALREVEHLKRAQQQMAEDKASVKAQVTSLLGELQESQSRLEAATKEAQALEGRARAASEQARQLESEREALQQQHSVQVDQLRMQGQSVEAALRMERQAASEEKRKLAQLQVAYHQLFQEYDNHIKSSVVGSERKRGMQLEDLKQQLQQAEEALVAKQEVIDKLKEEAEQHKIVMETVPVLKAQADIYKADFQAERQAREKLAEKKELLQEQLEQLQREYSKLKASAQESARIEDMRKRHVEVSQAPLPPAPAYLSSPLALPSQRRSPPEEPPDFCCPKCQYQAPDMDTLQIHVMECIE | 2 |  |
| 6xAla NEMO containing Cys347 (Cys347 added back into the 7xAla construct) (natural protein, human, UniProt Q9Y6K9 1-419, looked up) MNRHLWKSQLAEMVQPSGGPAADQDVLGEESPLGKPAMLHLPSEQGAPETLQRALEENQELRDAIRQSNQILRERAEELLHFQASQREEKEFLMAKFQEARKLVERLGLEKLDLKRQKEQALREVEHLKRAQQQMAEDKASVKAQVTSLLGELQESQSRLEAATKEAQALEGRARAASEQARQLESEREALQQQHSVQVDQLRMQGQSVEAALRMERQAASEEKRKLAQLQVAYHQLFQEYDNHIKSSVVGSERKRGMQLEDLKQQLQQAEEALVAKQEVIDKLKEEAEQHKIVMETVPVLKAQADIYKADFQAERQAREKLAEKKELLQEQLEQLQREYSKLKASCQESARIEDMRKRHVEVSQAPLPPAPAYLSSPLALPSQRRSPPEEPPDFCCPKCQYQAPDMDTLQIHVMECIE | 2 |  |
| 5xAla NEMO, full-length, expressed in NEMO-deficient mouse fibroblasts (natural protein, human, UniProt Q9Y6K9 1-419, looked up) MNRHLWKSQLAEMVQPSGGPAADQDVLGEESPLGKPAMLHLPSEQGAPETLQRCLEENQELRDAIRQSNQILRERAEELLHFQASQREEKEFLMAKFQEARKLVERLGLEKLDLKRQKEQALREVEHLKRAQQQMAEDKASVKAQVTSLLGELQESQSRLEAATKEAQALEGRARAASEQARQLESEREALQQQHSVQVDQLRMQGQSVEAALRMERQAASEEKRKLAQLQVAYHQLFQEYDNHIKSSVVGSERKRGMQLEDLKQQLQQAEEALVAKQEVIDKLKEEAEQHKIVMETVPVLKAQADIYKADFQAERQAREKLAEKKELLQEQLEQLQREYSKLKASCQESARIEDMRKRHVEVSQAPLPPAPAYLSSPLALPSQRRSPPEEPPDFCCPKCQYQAPDMDTLQIHVMECIE |  | stoichiometry N (cross-linking [5]): 2 |
| 6xAla NEMO containing Cys54 (Cys54 added back into the 7xAla construct) (natural protein, human, UniProt Q9Y6K9 1-419, looked up) MNRHLWKSQLAEMVQPSGGPAADQDVLGEESPLGKPAMLHLPSEQGAPETLQRCLEENQELRDAIRQSNQILRERAEELLHFQASQREEKEFLMAKFQEARKLVERLGLEKLDLKRQKEQALREVEHLKRAQQQMAEDKASVKAQVTSLLGELQESQSRLEAATKEAQALEGRARAASEQARQLESEREALQQQHSVQVDQLRMQGQSVEAALRMERQAASEEKRKLAQLQVAYHQLFQEYDNHIKSSVVGSERKRGMQLEDLKQQLQQAEEALVAKQEVIDKLKEEAEQHKIVMETVPVLKAQADIYKADFQAERQAREKLAEKKELLQEQLEQLQREYSKLKASAQESARIEDMRKRHVEVSQAPLPPAPAYLSSPLALPSQRRSPPEEPPDFCCPKCQYQAPDMDTLQIHVMECIE | 2 |  |
| 6xAla NEMO containing Cys11 (Cys11 added back into the 7xAla construct) (natural protein, human, UniProt Q9Y6K9 1-419, looked up) MNRHLWKSQLCEMVQPSGGPAADQDVLGEESPLGKPAMLHLPSEQGAPETLQRALEENQELRDAIRQSNQILRERAEELLHFQASQREEKEFLMAKFQEARKLVERLGLEKLDLKRQKEQALREVEHLKRAQQQMAEDKASVKAQVTSLLGELQESQSRLEAATKEAQALEGRARAASEQARQLESEREALQQQHSVQVDQLRMQGQSVEAALRMERQAASEEKRKLAQLQVAYHQLFQEYDNHIKSSVVGSERKRGMQLEDLKQQLQQAEEALVAKQEVIDKLKEEAEQHKIVMETVPVLKAQADIYKADFQAERQAREKLAEKKELLQEQLEQLQREYSKLKASAQESARIEDMRKRHVEVSQAPLPPAPAYLSSPLALPSQRRSPPEEPPDFCCPKCQYQAPDMDTLQIHVMECIE | 2 |  |
| 7xAla NEMO, recombinant full-length, C-terminal 6xHis (natural protein, human, UniProt Q9Y6K9 1-419, looked up) MNRHLWKSQLAEMVQPSGGPAADQDVLGEESPLGKPAMLHLPSEQGAPETLQRALEENQELRDAIRQSNQILRERAEELLHFQASQREEKEFLMAKFQEARKLVERLGLEKLDLKRQKEQALREVEHLKRAQQQMAEDKASVKAQVTSLLGELQESQSRLEAATKEAQALEGRARAASEQARQLESEREALQQQHSVQVDQLRMQGQSVEAALRMERQAASEEKRKLAQLQVAYHQLFQEYDNHIKSSVVGSERKRGMQLEDLKQQLQQAEEALVAKQEVIDKLKEEAEQHKIVMETVPVLKAQADIYKADFQAERQAREKLAEKKELLQEQLEQLQREYSKLKASAQESARIEDMRKRHVEVSQAPLPPAPAYLSSPLALPSQRRSPPEEPPDFCCPKCQYQAPDMDTLQIHVMECIE | 2 | Kd [6]: < 5 nM |
